Numbering of substitutions follows the chain as printed. In names and notes the source's numbering stands.
B1: F846TC.14E4 (antibody, human IgG4 S228P, kappa, V domains shown)
VH: QVTLKESGPGILQPSQTLSLTCSFSGFSLSTSGMGVGWIRQPSGKGLEWLAHIWWDDDKYYNTALKSGLTISKDASKNQVFLKIASMDTADTATYYCARNLYDGSYGYYAMDYWGQGTSVTVSS
VL: DIVMTQAAFSNPVTLGTSASISCRSSKSLLHTNGITFLYWYLQKPGQSPQPLIYQMSNLASGVPDRFSSSGSGTDFTLRISRVEAEDVGVYYCAQNLELPWTFGGGTKLEINR
notes: also called 846T.14E4
B2: F846C.1H5 (antibody, human IgG4 S228P, kappa, V domains shown)
VH: EVQLLESGGGLVKPGGSLKLSCAASGFTFSSYAMSWVRQTPEKRLEWVASISSGGDTYYPDSVKGRFTISRDNARNILYLQMSSLRSEDTAMYYCASYGNSLFDYWGQGTTLTVSS
VL: DVVMTQTPLSLPVSLGDQASISCRSSQSLVHNSGNTYLHWYLQRPGQSPNLLIYKVSNRFSGVPDRFSGSGSGTDFTLKISRVAAEDLGVYFCSQSTHVPPTFGGGTKLEIKR
B3: F849C.8D10 (antibody, human IgG4 S228P, kappa, V domains shown)
VH: QVQLQQTGAELVKPGASVKLSCKASGYTFTSYWINWVKQRPGQGLEWIGNIYPGSSSIYYSEKFKSKATLTVDTSSSTAYMQLSSLTSDDSAVYYCARWGYWGQGTTLTVSS
VL: DVLMTQTPLSLPVSLGDQASISCRSSQDIVHSSGNTYLEWYLQKPGQSLKLLIYKVSNRFSGVPDRFSASGSGTDFTLKISRVEAEDLGVYYCFQGSHVPPTFGSGTKLEIKR
notes: also called 849.8D10
B4: F846TC.7F10 (antibody, human IgG4 S228P, kappa, V domains shown)
VH: EVQLVESGGDLVKPGGSLKLSCAASGFTFSNYGLSWIRQTPDKRLEWVATISSGGSYTYYPDSVKGRFTISRDSAKNTLYLQMSSLKSEDTAMYYCARHAHYYGVSPYYFDYWGQGTCLTVSS
VL: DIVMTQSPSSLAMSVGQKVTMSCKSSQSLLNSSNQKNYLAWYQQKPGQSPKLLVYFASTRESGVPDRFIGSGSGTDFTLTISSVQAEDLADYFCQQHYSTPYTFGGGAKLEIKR
notes: also called 846T.7F10
B5: F846TC.14A2 (antibody, human IgG4 S228P, kappa, V domains shown)
VH: QIQLVQSGPELKKPGETVKISCKASGYTFTNYGMNWVKQAPGKGLKWMGWINTYTGEPTYAGDLKGRFAFSLETSASTAYLQINNLKNEDTATYFCVRYTMDYWGQGTSVTVSS
VL: QAVVTQESALTTSPGETVTLTCRSSTGAVTTSNYANWVQEKPDHLFTGLIGGINNRVPGVPARFSGSLIGDKAALTITGAQTEDEAIYFCALWYSNHWVFGGGTKLTVLR
notes: also called 846T.14A2; 846.14A2
B6: F847C.4B10 (antibody, human IgG4 S228P, kappa, V domains shown)
VH: EVQLVETGGGLVKPGGSLKLSCAASGFTFSSYAMSWVRQTPEKRLEWVASISSGGSTYYPDSVKGRFTISRDNARNILYLQMSSLRSEDTAMYYCTRFTTVVEMDYWGQGTSVTVSS
VL: B5 VL with I53T, V57A, W98L
B7: F847C.26F5 (antibody, human IgG4 S228P, kappa)
heavy: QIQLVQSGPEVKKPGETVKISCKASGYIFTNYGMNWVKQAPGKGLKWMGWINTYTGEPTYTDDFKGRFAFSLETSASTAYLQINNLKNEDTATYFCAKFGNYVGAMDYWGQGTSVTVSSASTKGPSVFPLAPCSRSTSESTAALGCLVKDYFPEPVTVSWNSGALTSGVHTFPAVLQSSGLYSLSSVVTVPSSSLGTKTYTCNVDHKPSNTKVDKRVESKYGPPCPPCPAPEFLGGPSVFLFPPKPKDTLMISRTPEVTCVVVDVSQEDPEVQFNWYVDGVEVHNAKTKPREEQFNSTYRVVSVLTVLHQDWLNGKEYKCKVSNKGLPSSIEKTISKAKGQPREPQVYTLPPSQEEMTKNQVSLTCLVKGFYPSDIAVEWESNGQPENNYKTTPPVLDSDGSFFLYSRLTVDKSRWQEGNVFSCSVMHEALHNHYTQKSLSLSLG
light: EIKMNQSPSSLSASLGDTITITCHASQNINVWLSWYQQKPGNIPKLLIYKASNLHTGVPSRFSGSGSGTGFTLTISSLQPEDIATYYCQQGQSYPYTFGGGTKLELKRTVAAPSVFIFPPSDEQLKSGTASVVCLLNNFYPREAKVQWKVDNALQSGNSQESVTEQDSKDSTYSLSSTLTLSKADYEKHKVYACEVTHQGLSSPVTKSFNRGEC
notes: also called 847.26F5
B8: F846C.1F5 (antibody, human IgG4 S228P, kappa, V domains shown)
VH: QIQLVQSGPELKKPGETVKISCKASGYTFTNYGMNWVKQAPGKGLKWMGWINTYTGEPSYADDFKGRFAFSLETSASTAYLQINNLKNEDMATYFCARWGGYDGDYYAMDYWGQGTSVTVSS
VL: NIMMTQSPSSLAVSAGEKVTMSCKSSQSVLYSSNQKNYLAWYQQKPGQSPKLLIYWASTRESGVPDRFTGSGSGTDFTLTISSVQPEDLAVYYCHQYLSSLTFGAGTKLELKR
notes: also called 846.1F5
B9: F846C.2H3 (antibody, human IgG4 S228P, kappa, V domains shown)
VH: B8 VH
VL: B8 VL
notes: also called 846.2H3
B10: F846TC.16B5 (antibody, human IgG4 S228P, kappa, V domains shown)
VH: B8 VH with S59A
VL: B8 VL with P86A
notes: also called 846T.16B5
B11: F846C.1H12 (antibody, human IgG4 S228P, kappa, V domains shown)
VH: B8 VH with Y32F, M91I, D103A
VL: B8 VL with E17Q, N34S, T69S
notes: also called 846.1H12
B12: F846C.1B2 (antibody, human IgG4 S228P, kappa, V domains shown)
VH: B8 VH with D103A, Y111F
VL: B8 VL with M3W, M4L, K18M, S22T, T78S, P86A
notes: also called 846.1B2
B13: 23H9.2E4 (antibody, V domains shown)
VH: QIQLVQSGPELKKPGETVKISCKASGYTFTTYAMSWVKQAPGKGLKWMGWINTYSGVPTYADDLKGRFAFSLETSASTAYLQINNLKNEDTATYFCARGPYAMDYWGQGTSVTVSS
VL: DIQMTQTTSSLSASLGDRVTISCSASQGINNYLNWYQQKPDGTVKLLIYYASSLHSGVPSRFSGSGSGTDYSLTISNLEPEDIATYYCQQYSQVPYTFGSGTKLEIK
B14: F849C.8H3 (antibody, human IgG4 S228P, kappa, V domains shown)
VH: QVTLKESGPGILQPSQTLSLTCSFSGFSLSTFGMGVGWIRQPSGKGLEWLAHIWWDDDKHYNPALKSRLTISKDTSKNQVFLRIANVDTADNATYYCARIDYGDYVGFAYWGQGTLVTVSA
VL: B1 VL with V3G, T5R, H31Y, T32S, F37Y, Y41F, P51L, E86D, N112K
B15: recombinant human TGF-beta RI/ALK-5 Fc chimera protein (R&D Systems, 3025-BR) (Fc fusion, UniProt P36897 24-125, looked up, not shown: a dimerising Fc or GST)
chain: AAALLPGATALQCFCHLCTKDNFTCVTDGLCFVSVTETTDKVIHNSMCIAEIDLIPRDRPFVCAPSSKTGSVTTTYCCNQDHCNKIELPTTVKSSPGLGPVE
notes: also called TGFβ RI; TGFBR1
B16: recombinant human TGF-beta sRII/Fc (R&D Systems, 341-BR) (Fc fusion, UniProt P37173 24-159, looked up, not shown: a dimerising Fc or GST)
chain: IPPHVQKSVNNDMIVTDNNGAVKFPQLCKFCDVRFSTCDNQKSCMSNCSITSICEKPQEVCVAVWRKNDENITLETVCHDPKLPYHDFILEDAASPKCIMKEKKKPGETFFMCSCSSDECNDNIIFSEEYNTSNPD
notes: also called TGFβ R2; TGFBR2

target: T1, human Galectin-3 (Gal3), full-length recombinant (human, UniProt P17931 2-250); experiment: not stated. Exponent is printed without a minus sign; value taken as a negative power of ten because the column is a KD in M
T1 construct: treated here as one molecule; also called hGAL3; hGal3
T1 sequence (P17931 2-250 limits assumed): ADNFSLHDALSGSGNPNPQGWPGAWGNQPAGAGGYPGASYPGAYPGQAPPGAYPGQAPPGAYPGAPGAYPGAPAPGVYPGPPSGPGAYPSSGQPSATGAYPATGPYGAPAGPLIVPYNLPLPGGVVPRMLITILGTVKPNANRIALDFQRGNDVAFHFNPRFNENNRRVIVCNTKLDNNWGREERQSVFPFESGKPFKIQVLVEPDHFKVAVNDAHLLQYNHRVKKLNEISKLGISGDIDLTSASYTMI

Row | Binder | Kd [nM]
1 | B1 | 0.556
2 | B2 | 3.41
3 | B3 | 3.75
4 | B4 | 1.4
5 | B5 | 3.26
6 | B6 | 21.5
7 | B7 | 20.9
8 | B8 | 1.63
9 | B9 | 1.72
10 | B10 | 0.927
11 | B11 | 0.622
12 | B12 | 5.74

target: T1, human Galectin-3 (Gal3), full-length …; experiment: blocking ELISA, Gal3 coated, biotin-TLR4

Row | Binder | % blocking of Gal3-TLR4 binding [%]
13 | B1 | > 90
14 | B13 | > 90
15 | B3 | > 90
16 | B5 | > 90
17 | B8 | > 90
18 | B9 | > 90
19 | B10 | > 90
20 | B12 | > 90

target: T1, human Galectin-3 (Gal3), full-length …; experiment: blocking ELISA, Gal3 coated, biotin-Abeta42 oligomer

Row | Binder | % blocking of Gal3-Abeta42 oligomer binding [%]
21 | B1 | > 90
22 | B13 | < 26
23 | B5 | > 90
24 | B6 | < 26
25 | B8 | > 90

target: T1, human Galectin-3 (Gal3), full-length …; experiment: blocking ELISA, Gal3 coated, biotin-Tau aggregates
Description: The plate was incubated for an hour at room temperature with gentle rocking. Thereafter, the plate was washed three times with PBST. […] The plate was incubated at room temperature for an hour with gentle rocking and then washed three times with PBST.

Row | Binder | % blocking of Gal3-Tau aggregates binding [%]
26 | B8 | > 90
27 | B12 | > 90

target: T1, human Galectin-3 (Gal3), full-length …; experiment: blocking ELISA, Gal3 coated, biotin-APP695

Row | Binder | % blocking of Gal3-APP695 binding [%]
28 | B1 | > 90
29 | B14 | > 90
30 | B3 | > 90
31 | B5 | > 90
32 | B6 | > 83
33 | B7 | 87
34 | B8 | > 90
35 | B9 | > 90
36 | B10 | > 90
37 | B11 | > 90
38 | B12 | > 90

target: T1, human Galectin-3 (Gal3), full-length …; experiment: blocking ELISA, Gal3 coated, TREM2-His
Description: The plate was incubated for an hour at room temperature with gentle rocking. Thereafter, the plate was washed three times with PBST. Anti-6× His tag antibody-HRP (Abcam, ab1269) was then added to the wells at 1:3000 dilution in 2% BSA in PBST. The plate was incubated at room temperature for an hour with gentle rocking and then washed three times with PBST.

Row | Binder | % blocking of Gal3-TREM2 binding [%]
39 | B1 | > 90
40 | B13 | > 90
41 | B3 | > 90
42 | B7 | < 47
43 | B8 | > 90
44 | B9 | > 90
45 | B10 | > 90
46 | B12 | > 90

target: T1, human Galectin-3 (Gal3), full-length …; experiment: SPR (Carterra LSA, HC30M chip with Protein A/G, receptor-Fc captured, Gal3 0-128 nM as analyte, 25 °C)
Description: Briefly, kinetics experiment was performed on Caterra LSA at 25° C. A HC30M chip was immobilized with recombinant Protein A/G.
The complex was allowed to associate and dissociate for 300 s and 240 s, respectively. Eight cycles of kinetics were done sequentially for the dilution series.

Row | Binder | Kd [nM] | koff [s⁻¹] | kon [M⁻¹ s⁻¹]
47 | B15 | 314 | 0.0351 | 112000
48 | B16 | 725 | 0.0837 | 116000

target: T1, human Galectin-3 (Gal3), full-length …; experiment: blocking ELISA, Gal3 coated, biotin-Abeta42 peptide

Row | Binder | % blocking of Gal3-Abeta42 peptide binding [%]
49 | B1 | > 90
50 | B13 | < 46
51 | B3 | > 90
52 | B5 | > 90
53 | B8 | > 90
54 | B9 | > 90
55 | B10 | > 90
56 | B12 | > 90
